Source: paper PMC9352680, “A comprehensive thermodynamic model for RNA binding by the Saccharomyces cerevisiae Pumilio protein PUF4”

T1: PUF4 RNA-binding domain (Saccharomyces cerevisiae, UniProt P25339 537-888)
T1 sequence: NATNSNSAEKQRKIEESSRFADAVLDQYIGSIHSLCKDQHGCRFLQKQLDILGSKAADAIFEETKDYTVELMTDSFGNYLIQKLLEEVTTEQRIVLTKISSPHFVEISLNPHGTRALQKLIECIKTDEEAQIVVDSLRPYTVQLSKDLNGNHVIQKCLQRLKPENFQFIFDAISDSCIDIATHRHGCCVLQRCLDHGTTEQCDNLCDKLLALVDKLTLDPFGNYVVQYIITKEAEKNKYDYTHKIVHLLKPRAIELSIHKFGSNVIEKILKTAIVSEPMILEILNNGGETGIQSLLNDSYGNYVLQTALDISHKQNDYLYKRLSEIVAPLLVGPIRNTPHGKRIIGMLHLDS


Target: T1, PUF4 RNA-binding domain
Assay: Mg; RNA-MaP; 20 mM Na-HEPES pH 7.4, 30 mM KOAc, 0.75 mM MgCl2, 0.1% Tween-20, 5% glycerol, 0.1 mg/mL BSA, 2 mM DTT; 25 C; 0.0125-409.6 nM protein
Settings: tags: N-His6-TEV cleaved; C-SNAP kept, Cy3B-labelled; label: tethered on chip by stalled RNA polymerase

Row | Binder | Kd [nM]
1 | UCUCUUAGUAUUAUAAUCUCUU (ssRNA) [Ib_S1_P5E.1_K5.1_C5.1_H5.1_[T1A]_A5.1_F5.1_[T9A]_T5.1] | 614
2 | Id_ii_S2_P3E.3_K3.2_C3.2_[C-2T]_[T-1A]_H3.2_A3.1_F3.1_T3.2_[T9C]_[A10T] (ssRNA) RNA: UUUGAUUAAUAUGAUAUCGUUCUUUCUUAUAUAUAUACUUUCUUUCUCGAUAUCAUAUUAAUCUUU | 45.6
3 | Id_ii_S2_P3E.3_K3.2_C3.2_[T-1G]_H3.2_A3.1_F3.1_T3.2_[T9C]_[A10C] (ssRNA) RNA: UUUGAUUAAUAUGAUAUCGUUCUUUCUCGUAUAUAUACCUUCUUUCUCGAUAUCAUAUUAAUCUUU | 863
4 | Id_ii_S2_P3E.3_K3.2_C3.2_[C-2A]_H3.2_A3.1_F3.1_T3.2_[T9C]_[A10T] (ssRNA) RNA: UUUGAUUAAUAUGAUAUCGUUCUUUCUAUUAUAUAUACUUUCUUUCUCGAUAUCAUAUUAAUCUUU | 214
5 | Id_ii_S2_P3E.3_K3.2_C3.2_[C-2T]_[T-1A]_H3.2_A3.1_F3.1_T3.2_[A10C] (ssRNA) RNA: UUUGAUUAAUAUGAUAUCGUUCUUUCUUAUAUAUAUAUCUUCUUUCUCGAUAUCAUAUUAAUCUUU | 93.1
6 | Id_ii_S2_P3E.3_K3.2_C3.2_[C-2A]_[T-1C]_H3.2_A3.1_F3.1_T3.2_[A10C] (ssRNA) RNA: UUUGAUUAAUAUGAUAUCGUUCUUUCUACUAUAUAUAUCUUCUUUCUCGAUAUCAUAUUAAUCUUU | 183
7 | Id_ii_S2_P3E.3_K3.2_C3.2_[C-2A]_H3.2_A3.1_F3.1_T3.2_[T9A] (ssRNA) RNA: UUUGAUUAAUAUGAUAUCGUUCUUUCUAUUAUAUAUAAAUUCUUUCUCGAUAUCAUAUUAAUCUUU | 693
8 | Id_ii_S2_P3E.3_K3.2_C3.2_[C-2A]_H3.2_A3.1_F3.1_T3.2_[T9A]_[A10T] (ssRNA) RNA: UUUGAUUAAUAUGAUAUCGUUCUUUCUAUUAUAUAUAAUUUCUUUCUCGAUAUCAUAUUAAUCUUU | 531
9 | Id_ii_S2_P3E.3_K3.2_C3.2_[C-2A]_[T-1C]_H3.2_A3.1_F3.1_T3.2_[T9G]_[A10C] (ssRNA) RNA: UUUGAUUAAUAUGAUAUCGUUCUUUCUACUAUAUAUAGCUUCUUUCUCGAUAUCAUAUUAAUCUUU | 1590
10 | Id_ii_S2_P3E.3_K3.2_C3.2_[C-2A]_[T-1C]_H3.2_A3.1_F3.1_T3.2_[T9C]_[A10C] (ssRNA) RNA: UUUGAUUAAUAUGAUAUCGUUCUUUCUACUAUAUAUACCUUCUUUCUCGAUAUCAUAUUAAUCUUU | 245
11 | Id_ii_S2_P3E.3_K3.2_C3.2_[C-2A]_[T-1C]_H3.2_A3.1_F3.1_T3.2_[T9C]_[A10G] (ssRNA) RNA: UUUGAUUAAUAUGAUAUCGUUCUUUCUACUAUAUAUACGUUCUUUCUCGAUAUCAUAUUAAUCUUU | > 2300
12 | Id_ii_S2_P3E.3_K3.2_C3.2_[C-2A]_[T-1C]_H3.2_A3.1_F3.1_T3.2_[T9C]_[A10T] (ssRNA) RNA: UUUGAUUAAUAUGAUAUCGUUCUUUCUACUAUAUAUACUUUCUUUCUCGAUAUCAUAUUAAUCUUU | 103
13 | Id_ii_S2_P3E.3_K3.2_C3.2_[C-2T]_[T-1A]_H3.2_A3.1_F3.1_T3.2_[T9A] (ssRNA) RNA: UUUGAUUAAUAUGAUAUCGUUCUUUCUUAUAUAUAUAAAUUCUUUCUCGAUAUCAUAUUAAUCUUU | 498
14 | Id_ii_S2_P3E.3_K3.2_C3.2_[C-2A]_[T-1G]_H3.2_A3.1_F3.1_T3.2_[A10T] (ssRNA) RNA: UUUGAUUAAUAUGAUAUCGUUCUUUCUAGUAUAUAUAUUUUCUUUCUCGAUAUCAUAUUAAUCUUU | 407
15 | Id_ii_S2_P3E.3_K3.2_C3.2_[C-2T]_[T-1A]_H3.2_A3.1_F3.1_T3.2_[T9A]_[A10T] (ssRNA) RNA: UUUGAUUAAUAUGAUAUCGUUCUUUCUUAUAUAUAUAAUUUCUUUCUCGAUAUCAUAUUAAUCUUU | 247
16 | Id_ii_S2_P3E.3_K3.2_C3.2_[C-2A]_[T-1G]_H3.2_A3.1_F3.1_T3.2_[T9C]_[A10C] (ssRNA) RNA: UUUGAUUAAUAUGAUAUCGUUCUUUCUAGUAUAUAUACCUUCUUUCUCGAUAUCAUAUUAAUCUUU | 1900
17 | Id_ii_S2_P3E.3_K3.2_C3.2_[C-2A]_H3.2_A3.1_F3.1_T3.2_[T9C]_[A10G] (ssRNA) RNA: UUUGAUUAAUAUGAUAUCGUUCUUUCUAUUAUAUAUACGUUCUUUCUCGAUAUCAUAUUAAUCUUU | 713
18 | Id_ii_S2_P3E.3_K3.2_C3.2_[C-2T]_[T-1A]_H3.2_A3.1_F3.1_T3.2_[A10T] (ssRNA) RNA: UUUGAUUAAUAUGAUAUCGUUCUUUCUUAUAUAUAUAUUUUCUUUCUCGAUAUCAUAUUAAUCUUU | 83.4
19 | Id_ii_S2_P3E.3_K3.2_C3.2_[C-2T]_H3.2_A3.1_F3.1_T3.2_[T9C]_[A10C] (ssRNA) RNA: UUUGAUUAAUAUGAUAUCGUUCUUUCUUUUAUAUAUACCUUCUUUCUCGAUAUCAUAUUAAUCUUU | 191
20 | Id_ii_S2_P3E.3_K3.2_C3.2_[C-2T]_H3.2_A3.1_F3.1_T3.2_[T9G]_[A10C] (ssRNA) RNA: UUUGAUUAAUAUGAUAUCGUUCUUUCUUUUAUAUAUAGCUUCUUUCUCGAUAUCAUAUUAAUCUUU | 277
21 | Id_ii_S2_P3E.3_K3.2_C3.2_[C-2T]_[T-1A]_H3.2_A3.1_F3.1_T3.2_[T9A]_[A10C] (ssRNA) RNA: UUUGAUUAAUAUGAUAUCGUUCUUUCUUAUAUAUAUAACUUCUUUCUCGAUAUCAUAUUAAUCUUU | 203
22 | Id_ii_S2_P3E.3_K3.2_C3.2_[C-2T]_[T-1A]_H3.2_A3.1_F3.1_T3.2_[A10G] (ssRNA) RNA: UUUGAUUAAUAUGAUAUCGUUCUUUCUUAUAUAUAUAUGUUCUUUCUCGAUAUCAUAUUAAUCUUU | 554

Row | Binder | Kd [nM]
23 | Id_ii_S2_P3E.3_K3.2_C3.2_[C-2T]_H3.2_A3.1_F3.1_T3.2_[T9G]_[A10T] (ssRNA) RNA: UUUGAUUAAUAUGAUAUCGUUCUUUCUUUUAUAUAUAGUUUCUUUCUCGAUAUCAUAUUAAUCUUU | 253
24 | Id_ii_S2_P3E.3_K3.2_C3.2_[C-2A]_[T-1G]_H3.2_A3.1_F3.1_T3.2_[T9A]_[A10T] (ssRNA) RNA: UUUGAUUAAUAUGAUAUCGUUCUUUCUAGUAUAUAUAAUUUCUUUCUCGAUAUCAUAUUAAUCUUU | 199
25 | Id_ii_S2_P3E.3_K3.2_C3.2_[C-2A]_[T-1G]_H3.2_A3.1_F3.1_T3.2_[T9A] (ssRNA) RNA: UUUGAUUAAUAUGAUAUCGUUCUUUCUAGUAUAUAUAAAUUCUUUCUCGAUAUCAUAUUAAUCUUU | 809
26 | Id_ii_S2_P3E.3_K3.2_C3.2_[C-2T]_H3.2_A3.1_F3.1_T3.2_[T9A] (ssRNA) RNA: UUUGAUUAAUAUGAUAUCGUUCUUUCUUUUAUAUAUAAAUUCUUUCUCGAUAUCAUAUUAAUCUUU | 925
27 | Id_ii_S2_P3E.3_K3.2_C3.2_[C-2A]_[T-1C]_H3.2_A3.1_F3.1_T3.2_[T9A] (ssRNA) RNA: UUUGAUUAAUAUGAUAUCGUUCUUUCUACUAUAUAUAAAUUCUUUCUCGAUAUCAUAUUAAUCUUU | 290
28 | Id_ii_S2_P3E.3_K3.2_C3.2_[C-2A]_[T-1A]_H3.2_A3.1_F3.1_T3.2_[A10T] (ssRNA) RNA: UUUGAUUAAUAUGAUAUCGUUCUUUCUAAUAUAUAUAUUUUCUUUCUCGAUAUCAUAUUAAUCUUU | 720
29 | Id_ii_S2_P3E.3_K3.2_C3.2_[T-1G]_H3.2_A3.1_F3.1_T3.2_[T9A]_[A10G] (ssRNA) RNA: UUUGAUUAAUAUGAUAUCGUUCUUUCUCGUAUAUAUAAGUUCUUUCUCGAUAUCAUAUUAAUCUUU | 573
30 | Id_ii_S2_P3E.3_K3.2_C3.2_[C-2T]_H3.2_A3.1_F3.1_T3.2_[A10C] (ssRNA) RNA: UUUGAUUAAUAUGAUAUCGUUCUUUCUUUUAUAUAUAUCUUCUUUCUCGAUAUCAUAUUAAUCUUU | 130
31 | Id_ii_S2_P3E.3_K3.2_C3.2_[T-1G]_H3.2_A3.1_F3.1_T3.2_[T9G]_[A10C] (ssRNA) RNA: UUUGAUUAAUAUGAUAUCGUUCUUUCUCGUAUAUAUAGCUUCUUUCUCGAUAUCAUAUUAAUCUUU | 108
32 | Id_ii_S2_P3E.3_K3.2_C3.2_[C-2T]_H3.2_A3.1_F3.1_T3.2_[T9A]_[A10T] (ssRNA) RNA: UUUGAUUAAUAUGAUAUCGUUCUUUCUUUUAUAUAUAAUUUCUUUCUCGAUAUCAUAUUAAUCUUU | 439
33 | Id_ii_S2_P3E.3_K3.2_C3.2_[C-2T]_H3.2_A3.1_F3.1_T3.2_[T9A]_[A10C] (ssRNA) RNA: UUUGAUUAAUAUGAUAUCGUUCUUUCUUUUAUAUAUAACUUCUUUCUCGAUAUCAUAUUAAUCUUU | 262
34 | Id_ii_S2_P3E.3_K3.2_C3.2_[C-2T]_H3.2_A3.1_F3.1_T3.2_[A10T] (ssRNA) RNA: UUUGAUUAAUAUGAUAUCGUUCUUUCUUUUAUAUAUAUUUUCUUUCUCGAUAUCAUAUUAAUCUUU | 78.5
35 | Id_ii_S2_P3E.3_K3.2_C3.2_[C-2A]_[T-1G]_H3.2_A3.1_F3.1_T3.2_[T9A]_[A10C] (ssRNA) RNA: UUUGAUUAAUAUGAUAUCGUUCUUUCUAGUAUAUAUAACUUCUUUCUCGAUAUCAUAUUAAUCUUU | 1960
36 | Id_ii_S2_P3E.3_K3.2_C3.2_[T-1G]_H3.2_A3.1_F3.1_T3.2_[T9A] (ssRNA) RNA: UUUGAUUAAUAUGAUAUCGUUCUUUCUCGUAUAUAUAAAUUCUUUCUCGAUAUCAUAUUAAUCUUU | 190
37 | Id_ii_S2_P3E.3_K3.2_C3.2_[C-2A]_[T-1A]_H3.2_A3.1_F3.1_T3.2_[T9G]_[A10C] (ssRNA) RNA: UUUGAUUAAUAUGAUAUCGUUCUUUCUAAUAUAUAUAGCUUCUUUCUCGAUAUCAUAUUAAUCUUU | 701
38 | Id_ii_S2_P3E.3_K3.2_C3.2_[C-2A]_[T-1A]_H3.2_A3.1_F3.1_T3.2_[T9A]_[A10G] (ssRNA) RNA: UUUGAUUAAUAUGAUAUCGUUCUUUCUAAUAUAUAUAAGUUCUUUCUCGAUAUCAUAUUAAUCUUU | 1010
39 | Id_ii_S2_P3E.3_K3.2_C3.2_[C-2A]_H3.2_A3.1_F3.1_T3.2_[T9C]_[A10C] (ssRNA) RNA: UUUGAUUAAUAUGAUAUCGUUCUUUCUAUUAUAUAUACCUUCUUUCUCGAUAUCAUAUUAAUCUUU | 322
40 | UCUCUUUGUGUUAAUAUCUCUU (ssRNA) [Ib_S1_P5E.1_K5.1_C5.1_H5.1_[A4G]_A5.1_F5.1_[T8A]_T5.1] | 134
41 | UCUCUUUGUUUUAAUAUCUCUU (ssRNA) [Ib_S1_P5E.1_K5.1_C5.1_H5.1_[A4T]_A5.1_F5.1_[T8A]_T5.1] | 73.4
42 | UCUCUUCGUAUUAUAAUCUCUU (ssRNA) [Ib_S1_P5E.1_K5.1_C5.1_H5.1_[T1C]_A5.1_F5.1_[T9A]_T5.1] | 691
43 | UCUCUUUGUAUUAUUGUCUCUU (ssRNA) [Ia_S1_P5E.1_K5.1_C5.1_H5.1_A5.1_F5.1_[A10G]_T5.1] | 14.8
